Reference: patent US20240254231A1 (published 2024)

T1: canine PD-1 ECD-mFc
T1 chain: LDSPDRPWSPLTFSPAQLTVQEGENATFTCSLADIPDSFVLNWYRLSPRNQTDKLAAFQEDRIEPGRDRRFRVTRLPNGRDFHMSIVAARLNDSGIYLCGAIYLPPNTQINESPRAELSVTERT

T2: canine PD-1 ECD-6His
T2 chain: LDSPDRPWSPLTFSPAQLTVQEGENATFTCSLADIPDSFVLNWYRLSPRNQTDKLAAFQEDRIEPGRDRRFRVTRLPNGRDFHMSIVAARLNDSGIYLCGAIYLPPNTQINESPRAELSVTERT

T3: canine PD-1, full-length, membrane-embedded
T3 chain: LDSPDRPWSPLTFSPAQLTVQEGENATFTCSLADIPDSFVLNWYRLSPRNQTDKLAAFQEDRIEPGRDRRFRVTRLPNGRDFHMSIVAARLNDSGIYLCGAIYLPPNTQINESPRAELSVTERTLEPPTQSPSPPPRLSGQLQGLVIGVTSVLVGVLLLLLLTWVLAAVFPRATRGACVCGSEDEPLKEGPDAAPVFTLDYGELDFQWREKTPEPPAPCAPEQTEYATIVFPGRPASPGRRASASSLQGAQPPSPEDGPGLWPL


What was measured:
[1] = biological target: PMX-150; test: flow cytometry; apparent Kd of cell binding
[2] = biological target: PMX-149; test: flow cytometry; apparent Kd of cell binding
[3] = biological target: PMX-145; test: flow cytometry; apparent Kd of cell binding
[4] = biological target: PMX-147; test: flow cytometry; apparent Kd of cell binding
[5] = biological target: T1, canine PD-1 ECD-mFc; test: SPR; avid
[6] = biological target: T2, canine PD-1 ECD-6His; test: SPR; monovalent binding
[7] = biological target: T3, canine PD-1, full-length, …; test: flow cytometry; apparent Kd of cell binding

Binder | Kd [1] [nM] | Kd [2] [nM] | Kd [3] [nM] | Kd [4] [nM] | Kd [5] [nM] | Kd [6] [nM] | Kd [7] [nM]
PD-1 (receptor) LDSPDRPWSPLTFSPAQLTVQEGENATFTCSLADIPDSFVLNWYRLSPRNQTDKLAAFQEDRIEPGRDRRFRVTRLPNGRDFHMSIVAARLNDSGIYLCGAIYLPPNTQINESPRAELSVTERTLEPPTQSPSPPPRLSGQLQGLVIGVTSVLVGVLLLLLLTWVLAAVFPRATRGACVCGSEDEPLKEGPDAAPVFTLDYGELDFQWREKTPEPPAPCAPEQTEYATIVFPGRPASPGRRASASSLQGAQPPSPEDGPGLWPL | 6.83 | 8.23 | 5.75 | 2.65 | – | – | –
PMX125 (antibody, V domains shown) VH: EVQLVESGGDLVKPGGSLRLSCVASGFSFSRYHMSWVRQAPGKGLQWVAYIISGGITTSYADAVKGRFTISRDNAKNTLFLQMNSLRAEDTAVYYCATYGSYFFDKWGQGTLVTVSS VL: DIVMTQTPLSLSVSPGETASISCKASQSLLHSDGKSYLNWFRQKPGQSPQRLIYRVSNRDPGVPDRFSGSGSGTDFTLRISRVEADDTGLYYCGQVIQDPTFGAGTKVELK | – | – | – | – | 0.0348 | 7.7 | 1.07
PMX127 (antibody, V domains shown) VH: EVQLVESGGDLVKPGGSLRLSCVASGFSFSRYHMSWVRQAPGKGLQWVAYIVSGGISTSYADAVKGRFTISRDNAKNTLFLQMNSLRAEDTAVYYCATYGSYFFDTWGQGTLVTVSS VL: DIVMTQTPLSLSVSPGETASIFCKASQSLLHSDGKSYLNWFRQKPGQSPQRLIYRVSNRDPGVPDRFSGSGSGTDFTLRISRVEADDTGLYYCGQVIQDPTFGAGTKVELK | – | – | – | – | 0.0024 | 2.2 | 0.86
PMX152 (antibody, V domains shown) VH: EVQLVESGGDLVKPGGSLRLSCVASGFTFSRYYMNWVRQAPGKGPQWVAYINNAGSDRNYVDAVKGRFTISRDNAKNTLYLQMNSLRAEDTAVYYCASEIRGVVVVGHLDYWGQGTLVTVSS VL: SYVLTQLPSKSVTLNQPAHITCGGDNIGSKSVHWYQQKLGQAPVLIIYYDSIRPTGIPERFSGATSGNTATLTISGALAEDEADYYCQVWDSSAKAWVFGEGTQLTVL | – | – | – | – | 0.0318 | 24.2 | –
PMX151 (antibody, V domains shown) VH: EVQLVESGGDLVKSGGSLRLSCVASGFTFNTYSMNWVRQAPGKGLQWVARIKSSGSSTTYADAVKGRFTVSRDIAKNTLFLQMNSLRAEDTALYYCASEPGARYEIYFVESFFDYWGQGTLVTVSS VL: SYVLTQLPSKSVTLKQPAHITCGGDNIGSKSVHWYQQKLGQAPVLIIYYDSSRPTGIPERFSGANSGNTATLTISGALAEDEADYYCQVWDSSAQAWIFGEGTQLTVL | – | – | – | – | 0.0322 | 1.7 | 2.97
PMX126 (antibody, V domains shown) VH: EVQLVESGGDLVKPAGSLRLSCLASGFTFSSYSMSWVRQAPEKGLQSVAGINSDGDRTYYTDAVKGRFTISRDNAKSTVYLQMNSLRAEDTAMYYCVRGFSSFNAFGYWGQGTLVTVSS VL: DIVMTQTPLSLSVSPGETASISCKASQSLLHSDGNTYLSWFRQKPGQSPHRLIYAVSHRHPGVPDRFSGSGSGTDFTLRISRVEADDAGLYYCGQVIQDPWTFGAGTKVELK | – | – | – | – | 0.0297 | 6.8 | 1.05
